Source: the domain aggregation screens of Martell et al. (2025)

Experiment: soluble fraction after stress (log2 fold change); higher = more stays soluble; pooled small domains, quantitative proteomics
Settings: stress: 75 degC
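Note: 20 min heating vs room temperature control held 20 min.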

Row | Sequence | soluble fraction (log2)
1 | HMVRKIQAKLVLRLHAQGLSGRAIARSQGMSRRSVSDVLDAARAVGVGWDDVTGKTDGEVYALLFPGRG | -2.66
2 | HMVRKIRARLVLQLRAEGLSGRAIAGSQGMSRKSVTAVLDAADRAGIGWDEIAERSEGEVYALLFPGRG | -1.46
3 | HMVRQKYKSNFITVGDKSLTIHDWAQRLNLSQYALRNRYKEFGKEWVEKAIKTILETGDNTHIYK | -1.46
4 | HMVRSLADQVYERLRRNIVSGDLAPNARIVELDIAAQMGTSQGPVREALQRLEREGLVQRRAHSATFVTD | -0.554
5 | HMVRVSELAIEPRLVVEETATGFVGAVVRYANGLIELEDRHGAVRTFPLGPGYLVDGRPVSLVKPT | -0.577
6 | HMVSEDELLARIALLPYPQAKILLEERLSHDPANAKVRQLYLELAKKSGDHTEVTRHNSLLY | -0.347
7 | HMVSKIEAPLPGIILSVDVKEGDTVKAGDKLMVMEAMKMENAILAETNGVVKSIKVKIQDSVLQGDILAEI | -0.55
8 | HMVSKSDVQRALEKVEPVLRKLGGSTVEKVRVMARQATLVFEMLKSWWKGEIDLPWKTVAAMTVTLLYL | -0.451
9 | HMVSLNKTEFIAVKKASASELRDKINSLGLDVLKDATISADARTNQIIATGPKYALEQIKMLVVGLDVSS | -1.4
10 | HMVSLRQQVYDYLRSQMNQGELRPGSAINLGEMSSRFGISRTPLREALLQLETEGFVTIYPRKGIIVN | -1.63
11 | HMVSLTGEWRPSKDALDILITKGGINPNFIDDAVPEFILYWRDRGDVSNTWDSKFIQHVRRQWQFYTGI | -2.87
12 | HMVSMSFDDYVNDAKEYESEGDKDKAYNSYLEAYKLNKSSEEVLDYLIDNTEDVTLKLNYVYEYLDL | 0.00966
13 | HMVSNFEAEFGRHFAIFFPGSEFTELKLRLLEEGAELIDPIRDTPFERFFFKDPNGYIFEVIDKE | -2.81
14 | HMVSNRMVYSDFQQKWINNQVESINVNADKMTIEVTTQDEKKYTVYAPSSMIEFLNEQYPKDDIKIEYVAP | 0.153
15 | HMVSPLEKSQSFGSFEISREFARTLGLTSARNWENWAASDSRPINIPYSPNVFYKNKGWIDWSDWLGTE | -0.279
16 | HMVSRQINVIPDDLAGLRLDQALAHLFPQHSRSRLKEWLLEDIIIVQGGPKRPKDIVSGGEIVEIKL | -0.165
17 | HMVSYTLPTLHTGKNWYVDFTAYDPAEQKMKRKKYMLDGISKITERRKRAVDIIATVTARLRSGWNPWA | -2.76
18 | HMVTARMPDLFGLDEATAQRMVSNAGLTLKTEYAYSDQAEGYVFDQTPEANAEVRRGGTVTAMIS | 0.069
19 | HMVTEIDYGAFIKMTEEGNIGEVKIEDNQIVFTDKENKAIYKTGIMPDSDLTQRLYDSGAVFA | 0.128
20 | HMVTEKPLYRDELMDHDTVWVEPISMDSHLRMELRGWYHVKNRFVENEVGQRFYFDFYDIKWLAFTNGP | -5.45
21 | HMVTINTASLEKAIADAKAVVKESYTTDSYNAMKAVLDEAEDLLKEEAQDQDTIDAKTEALNAAIEALVKR | 0.166
22 | HMVTLPLLKRGHTGLPVKALQTLLVLRGMSVDVDGSFGEKTESAVRTFQTAAKILSDGEVGKDTWKALI | -1.56
23 | HMVTPPMVVVDVQGEVKTPGVYHLPTNSRVNDAIKAAGGPKQSADLSYINQARMVKDGEQIYVEKKL | 0.0962
24 | HMVTTDPIADMLTRIRNASSQKHKSVDVPASKEKLAIAQILFEEGYIKSFEEIKEENNQGVIRITLKYTEK | -0.733
25 | HMVTVPNYSDPRQYVEWGNANGITINRAVGDTIASMSGRVQDVRDSNGNSVIGKKVKKGSTVTVYIYFLK | -1.08
26 | HMVTVSAVNITPKGHTTVGFTDRSVNPPSNYYLRVGESADGWTVKDADFDDEIATLEKDGVAITLKL | -0.228

Row | Sequence | soluble fraction (log2)
27 | HMVTYELTEDEKFIVSLLEKENSQPIGALKDKSALSGKKWDAAMKGLAKHGLTKVVVDGDNKLVVL | -0.0322
28 | HMVVEDDTVLQAVKQAIEENPEAVSDYFEGKSKALNFLVGQVMRITRGKADPAKTNQMVVEELKNR | 0.237
29 | HMVVMKGKVKWFNKNKGYGFIITDDNKEYFVHWKSIVTNSPRELKVLEQDELVTFDLMETDKGIQAINII | -2.19
30 | HMVVPELNLAQQDVLRALRQRGRATADHLSVDTHRPVSEVMGILLGLEIAEVLYRVEGGWFVPKTAR | -2.39
31 | HMVVSDKIAFSSFLKSVEDGRVVEVEITGNDIRGILSDGTVFNTYAPNDPNLVEKLTSKGVNITALPKE | 0.522
32 | HMVVYQRVHDEILQALKDNVYPVGTLLPPEPELERIYSVSRTTVRRAIAKLSEEGYVQVRQGYGTMVLKN | -3.48
33 | HMWGAYHDGQVVKFPKKVTVYVIDGQYKRPLANEFVLKFLNYKTSDIIIDKDGNLNNYKNGAVVEH | -2.79
34 | HMWMQKILGNYIAARRKELGMTQANLAEKIHVTDKAVSRWERGVGLPDIENLEALAKALEVSLVSLMQGKT | -2.36
35 | HMWNGIVDAGKARQHLMNLSQLGVGRRAVAAASDVAETVLMDIRSGTKTRIRARTERQILAVTPEMA | -2.42
36 | HMWNTADDIKEAIWKLIQSEDPKKPYSDLKISQLLLEKEMKISRRTVAKYRKEMGILGTYSRK | -0.603
37 | HMWQPIKLDRGDWQNSLQVGDRVFVRGIPRPVEILSAVDEENNIEVLMGTMRAKIPVYQLDKPAENFIDTT | -0.362
38 | HMWQVVEVDYGTFMSMTEDGQVGRVEIQEQENLILFTDQEETTVYKTAMVDDPDLTARLHDAGIPFYGQE | -1.06
39 | HMWSGEPFLDELRHADTLLETDPEAALAEYRALADKGSAAAMMALGNAYASGSHVARDEGEAEHWYRRAA | 0.0377
40 | HMWSLLVILQLREGGQRFSQLQRAIPDISQRMLTQTLRKLERDGLVSRKVTPSTPPRVDYAITELGH | -0.841
41 | HMWSQEPEYRPLYNSMDGFDAGQVVEMLQQSRIDYKVEPNSGALLVRSEDLADARLRLASAGISP | 0.0488
42 | HMYAEVTITIEKGMTSDSVSKLLYKAGIVDDAKEFNNYIIKAGKSTKILIGEFTIQKGASYDDIIKIIA | -3.51
43 | HMYAGTVTQVKNNKVMLEFDGETVNVGDQFFILNSDGKKVAIVEITAAKNKKALANVLKGKAVVDGTTQAK | -0.476
44 | HMYAVDTIHKGTITEMTDKGAVVSLGDNIDGFAPARQLVKEDGTTLKLGDTADFKVIEFSKATKRITLSH | 0.58
45 | HMYAVQKGDTLKKIADQFGISVDTIKWANDMKGDALSIDQELKIP | 0.414
46 | HMYDAEAINKFFDIENWDFGETFYFQELSAYIMNQLSPKLVTILIVPRQTTQAFGSLFEIKSEPDEIFAS | 0.172
47 | HMYDDEELDVLAHRPIESYTDAELAMLREVAETLLETDYEGWLKSLSMRGILLPPEILQLVT | -0.269
48 | HMYDDLEPFDANGRLRWSDKELILAFGRHRGVTLQTLELNDPGYLRWLLSGNGPLEQQDRKRLEDILES | -1.45
49 | HMYDEKTLRKAVLDYVRDNDDGRLDLMKIDSYLTSRYGNIDYAALGYNRLSMFISSFPELRRNSNYVTLRK | -1.44
50 | HMYEDNERNLYSVVINFLNEHKIKISREAINLVINRSSGDKHNLKQELNKILNYSFSNKNITYETIEKLSN | -1.83
51 | HMYEDNERSLVPIVQNFLKEKKILLSNQSINLIVQRSGGDRINLYNELQKIESFSKNQKKIDIGDIIKLTN | -1.03
52 | HMYEDSNQSLNFFAIKFIKEKNIKISQETTNLIVERARGDRGNLINELQKLEALSLTRKKITQEDVFNLTN | -1.99

Row | Sequence | soluble fraction (log2)
53 | HMYEGLILINKYDSLVSAKLETNKIKSLGLFFEDMEEKIAVFSGPFKNNDINLKLDFLIRNGYLDAKIY | -4.87
54 | HMYEIEDIKEKLLDLLANSKTGFSGLEISNRLGINRITVSKYLNIFSAEGLIKQKNIGNVIIWFVEDGIE | -0.509
55 | HMYEVDGLGIRIAQLRKKQDLTQEAFARTLGVSPQAVSKWETGIGYPDITLLPQIAKELGVSIDQLFGRN | -0.307
56 | HMYFGDADGNKKVDAADALYLKRHLADWEDYRELPQKTNVSWMDEASPANLMILERHIAGWKDYEMLPYT | -0.425
57 | HMYFMDEETWESKKTLLNDWYEANPEYADRRAISDGLFKIGDLQPDFRRRHWGSIGVIFADIPNSPMG | -0.502
58 | HMYGHKLDSYESYVVSELRRWPFLSAPQIHDRLKEHFSDLPLVTPKTVFNFVNRLRLTHSLPKE | -3.38
59 | HMYGLSFLIGFTVVDRTYGDIGKVTAIDDSTVNTLMAVGDRLIPAQEAFITKIDNTKKIIYTQLPEGLL | -1.17
60 | HMYGTQTVNRGAVQPGMLVKHKDSTWTASANARGRLYLHRGVEMTYTRDLLVEVYLNGLGNGL | 0.158
61 | HMYHADLIGLRVETAAGEKLGTVKAVHNFGAGDVIEITGAEDKDGLMVPFTAEVVPEVDIENGRIVVS | -0.0762
62 | HMYHKKEKAQAANIEERIMILLSDGKHHHITEIKAIYVDEVITLNILEEMLAEEKVIIEGDMIMLVE | -3.64
63 | HMYKLTTQRRAILDVIIENHDKHLNPEEIYDIVKEKYPEIGIATVYRTLQLLEKLNIIYRLNFDDGYNRYE | -2.87
64 | HMYKLTYVVDGEVYLEETVSYGSKIAAAPAPEKEGYTFSGWEGLPEVMPAKDVTVSGSFTVN | -0.69
65 | HMYKMKDRIKKIMEMQRTTQQDFADQLKIAPATLSSIFTGRTRPTLAIVDAIKSRFPQISTDWLMFGKGDM | -0.151
66 | HMYKNAFITYDNNLYYLGSDSKMAIGWQSIGGNTYYFRNWGGMITGKQVIDGKTYVFDEDGKLVQSPD | -1.25
67 | HMYLNYQTIGKRIRLLRKQQHLTQMTLAEMVDKSPTYISLVENGQKGPSLETLIDVANALKVTMDVLLAEY | -4.94
68 | HMYLPPYMEVRAVMILDGKPMALMYIEGEGDGLIVSPGYKFDNGKGKVVSITPTKVVVLWAGTKMELG | -3.37
69 | HMYLYHDLSDEAKAMGDEYVSVEHLVLALIRYPNNAVKELFREFGITRERFLQVLSTIRGNQRVTSDNPEA | 0.0272
70 | HMYMFSGQRLKSLRKEKKMSQEKLGSLLNISKVAVSNWENAKSFPTMDNLNELAKVLEVEPHYF | -1.33
71 | HMYMKLSVKDAALFLSVSPETVYRWVKQEEIPYHTVNDQLRFNRAELLEWATARSLEVSPDLFVP | -3.84
72 | HMYMWQVEDLIRANGLDIERIKDSIIRPYELDEERKRELTQWYEDLIDMMRREGVAQSGHLQIN | -3.28
73 | HMYNMEELAGHTEKVYNSLPEELKLVIKLREIENMSYDEISLKTGMPIGTVRSRLHRAREILVDSLKDY | -1.28
74 | HMYQNRLFYTLKTGETVADLSKSQDINLSTIWSLNKHLYSSESEMMKAAPGQQIILPLKKLP | -0.247
75 | HMYQPLRDVIFETLRKAIVSGDIKPGERLMEVSLANQMGVSRTPVREAIRRLEAEGLVTMTPRKGTHVAE | -0.891
76 | HMYQRLPFSFANRYKMVLESQHPERAPILYYVEPLKSAAIIEVSRVVKNGFTPQAITLDEFDKKLTDAYQR | -1.43
